Measurements from US9359446B2, “Antibody to a carbonic anhydrase” (Hemholtz Zentrum Munchen—Deutches Forschungszentrum Fur …, priority 2010, dated 2016).

How the values were obtained:
[1] = test system: non-transfected L929-cells; test: Flow cytometry binding to non-transfected L929 cells (control); set-up: species or system murine
Experimental: (§1) Murine L929 cells were transfected with an expression plasmid encoding human CA-XII. […] As a control, binding of EXO 6A10 to non-transfected L929-cells was tested (FIG. 10, grey area, L929). […] the binding of membrane localized overexpressed human CA-XII.

[2] = target: CA-II (Homo sapiens, UniProt P00918); test: EXO 6A10 inhibition of CA II; type: biochemical
[3] = target: T1, CA-XII (Homo sapiens, UniProt O43570); test: CA-XII inhibition by EXO 6A10 and azetazolamide; type: biochemical; details: compared to sulfonamid azedazolamide
T1 sequence (O43570 25-354): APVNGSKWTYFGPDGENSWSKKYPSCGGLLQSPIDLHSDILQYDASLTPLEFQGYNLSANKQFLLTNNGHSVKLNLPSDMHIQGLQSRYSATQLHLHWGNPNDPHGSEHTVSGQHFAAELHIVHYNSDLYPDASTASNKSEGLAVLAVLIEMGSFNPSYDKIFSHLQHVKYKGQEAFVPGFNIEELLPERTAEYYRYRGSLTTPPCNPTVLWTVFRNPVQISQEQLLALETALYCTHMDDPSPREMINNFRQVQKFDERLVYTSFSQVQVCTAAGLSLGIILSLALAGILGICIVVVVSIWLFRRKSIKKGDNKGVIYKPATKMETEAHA

[4] = test system: peripheral blood mononuclear cells (PBMC), melanoma cell lines; test: Flow cytometry binding to peripheral blood mononuclear cells and melanoma cell lines; set-up: species or system human; details: hybridoma supernatant diluted 1:5
Experimental: FIG. 4A. Permanent human cancer cell lines were incubated with EXO 6A10 (hybridoma supernatant diluted 1:5 in 2% (v/v) FCS (i.e., fetal calf serum) in PBS) for 15 min on ice, washed three times in PBS/2% (v/v) FCS and then stained with a specific secondary antibody (goat-anti-rat IgG/Cy5) for another 15 min on ice. Binding of 6A10 was then measured by flow cytometry in a Becton Dickinson FACS Calibur device and FlowJo software (Treestar Inc.). An antibody of the identical isotype with an irrelevant specificity (glutathione-S-transferase) was used as control. (grey are=isotype control; black line=EXO 6A10). No binding to peripheral blood mononuclear cells (PBMC) and to two melanoma cell lines (not shown) was detectable. […] Exosomes were isolated from malignant ascites by differential centrifugation (500×g; 10.000×g; 70.000×g) and resuspended in PBS. The protein concentration was measured in a standard Bradford assay. 2 μg protein were pipetted onto a nitrocellulose membrane. Membranes were incubated with the different primary antibodies. After washing, membranes were incubated with a specific secondary antibodiy (anti-rat IgG/peroxidase). Ganglioside GM1 was detected with cholera toxine subunit B/peroxidase. Membranes were developed with the ECL system.

[5] = test system: A549 lung cancer cells; test: Inhibition of metabolic activity and growth in 3-dimensional A549 tumour spheroids (MTT-assay, pictures); type: cell-based, human
Experimental: Metabolic acitivity of the spheroid was measured two days later by means of a MTT-assay and reading of the extinction at 595 nm (Cory et al. 1991). All data are represented as mean±standard error. Comparisons between non-treated and treated spheroids were performed using t-tests.
A549 lung cancer cells were plated onto a cushion consisting of 1% (v/v) agarose in PBS on a 96-well cell culture plate. […] Instead cells spontaneousely form 3-dimensional structures termed tumour spheroids.
FIG. 7, Upper: Some of the spheroids were cultivated in the presence of EXO 6A10 (final concentration 10 μg/ml) whereas others were cultivated with acetazolamide (AAZ, final concentration 100 μM). Control spheroids were cultivated without any additional treatment (Unbeh.). The metabolic acitivity of the spheroid was measured two days later by means of a MTT-assay as described and reading of the extinction at 595 nm (Cory et al. 1991). For each group, 10 spheroids were included, the mean value, the standard deviation were calculated. All data are represented as mean±standard error. Comparisons between non-treated and treated spheroids were performed using t-tests, calculated using Prism4 (GraphPad Software, La Jolla).
FIG. 7, Lower: A549 spheroids were cultivated for two days with EXO 6A10 or left untreated.

[6] = target: T1, CA-XII; test: Flow cytometry binding to murine L929 cells transfected with human CA-XII; set-up: expressed in transfected cells; host or cells: murine L929 cells
Experimental: as §1

B1: EXO 6A10: rat monoclonal antibody raised to human CA-XII; CDRs SEQ ID NOs 1 to 6, VH SEQ ID NO. 7, VL SEQ ID NO. 8 (protein)
light: MARVFQQDDIVMTQTPATLSVTPGESVSLSCRASQGISTSIHWYQQKSNESPRLLIKFASQSISGIPSRFSGSGSGTDFTLSINRVESEDFSVYFCQQTYSLPYTFGAGTKLELKRADGCTNCIHLSRRSPTIFSAAMENRCSSFILSRFSGCILKLILRTMLTTSSGTVVGG
VH: EVKLEESGPGLVQPSETLSLTCTVSGFSLTTYSVSWVRQPSGKGPEWMGRMWYDGDTVYNSALKSRLSISRDTSKNQVFLKMNSLETDETGTYYCTRDFGYFDGSSPFDYWGQGVMVTVSSAETTAPSVYPLAPGTALKSNSMVTLGCLVKILLKNSSHPEDLAAALPIVSRITPDGYGVQAQVLKQLILFTMRKKQ
[1]
  binding to non-transfected L929 cells: not to non-transfected cells
[2]
  inhibition of CA-II: does not significantly inhibit
[3]
  inhibition of CA-XII enzyme activity relative to azedazolamide: 40 times
[4]
  binding to PBMC and two melanoma cell lines: No binding
[5]; A549 spheroids, 10 μg/ml, two days
  metabolic activity of spheroids (MTT-assay, extinction at 595 nm): inhibition of metabolic activity
[5]; cultivated for two days, versus untreated spheroids
  size and density of A549 spheroids: much smaller and much more dense
[5]; hypotoxic culture conditions
  growth of tumour cell line A549: inhibits the growth
[6]
  binding to L929 cells transfected with human CA-XII: binds to transfected
